{
  "source": "paper PMC12538437",
  "about": "“Branched DNA processing by a thermostable CAS-Cas4 from Thermococcus onnurineus: Expanding biochemical landscape of nuclease activity”",
  "target": "T1, TON_0321 (CAS-Cas4) (Thermococcus onnurineus NA1, UniProt B6YTB9 1-222)",
  "T1 sequence": "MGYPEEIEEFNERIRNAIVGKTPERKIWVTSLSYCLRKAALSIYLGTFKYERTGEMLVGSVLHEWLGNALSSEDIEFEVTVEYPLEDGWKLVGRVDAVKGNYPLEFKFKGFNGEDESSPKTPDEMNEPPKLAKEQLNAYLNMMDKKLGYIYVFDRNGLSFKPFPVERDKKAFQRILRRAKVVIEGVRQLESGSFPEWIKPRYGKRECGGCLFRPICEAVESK",
  "assay": "fluorescence anisotropy; 20 mM ZnSO4; 20 mM Tris-HCl pH 8.0, 100 mM NaCl, 0.5 mM DTT, 0.1 mg/ml BSA, 20 mM ZnSO4, 25 °C; 35 nM DNA (25 nM labeled), 0-1600 nM protein",
  "conditions": "protein: recombinant; tags: N-terminal 6xHis (pET28a); label: 5' 6-FAM; single strand",
  "data": [
    {"binder": "ATTCTACCAGTGCCTTGCTAGGACATCTTTGCCCACCTGC (ssDNA)", "note": "[ssDNA (Y0-1F)]", "values": [
      {"measurement": "binding result", "result": "binds"}
    ]}
  ]
}
